The data set concerns the molecule itself. In words: SEC; purified recombinant WT, S287A and S287D PKM2 expressed in bacteria; size exclusion chromatography with molecular mass standards. For orientation: SEC sorts molecules by how far they enter the pores of the column.

B1: purified recombinant S287D PKM2 expressed in bacteria (enzyme)
chain: not shown
notes: PKM2 S287D (phospho-mimetic), recombinant; construct, tag and limits not described; source: expressed in bacteria, purified recombinant
In general, stoichiometry N refers to a count of units in the complex or per binding partner. Regarding B1, the “stoichiometry N” value was found to be 4.

B2: purified recombinant S287A PKM2 expressed in bacteria (enzyme)
chain: not shown
notes: PKM2 S287A, recombinant; construct, tag and limits not described; source: expressed in bacteria, purified recombinant
On to B2, for which the “stoichiometry N” value is 2.
